Test results published in US7838231 (REGENTS OF THE UNIVERSITY OF MICHIGAN, dated 2010).

Tests used:
Assay in all cases: direct yeast two-hybrid assay
[1] = molecular target: T1, NPHP1, human full length, yeast two-hybrid prey (human, UniProt O15259 1-732)
T1 construct: also called nephrocystin 1
T1 sequence (looked up): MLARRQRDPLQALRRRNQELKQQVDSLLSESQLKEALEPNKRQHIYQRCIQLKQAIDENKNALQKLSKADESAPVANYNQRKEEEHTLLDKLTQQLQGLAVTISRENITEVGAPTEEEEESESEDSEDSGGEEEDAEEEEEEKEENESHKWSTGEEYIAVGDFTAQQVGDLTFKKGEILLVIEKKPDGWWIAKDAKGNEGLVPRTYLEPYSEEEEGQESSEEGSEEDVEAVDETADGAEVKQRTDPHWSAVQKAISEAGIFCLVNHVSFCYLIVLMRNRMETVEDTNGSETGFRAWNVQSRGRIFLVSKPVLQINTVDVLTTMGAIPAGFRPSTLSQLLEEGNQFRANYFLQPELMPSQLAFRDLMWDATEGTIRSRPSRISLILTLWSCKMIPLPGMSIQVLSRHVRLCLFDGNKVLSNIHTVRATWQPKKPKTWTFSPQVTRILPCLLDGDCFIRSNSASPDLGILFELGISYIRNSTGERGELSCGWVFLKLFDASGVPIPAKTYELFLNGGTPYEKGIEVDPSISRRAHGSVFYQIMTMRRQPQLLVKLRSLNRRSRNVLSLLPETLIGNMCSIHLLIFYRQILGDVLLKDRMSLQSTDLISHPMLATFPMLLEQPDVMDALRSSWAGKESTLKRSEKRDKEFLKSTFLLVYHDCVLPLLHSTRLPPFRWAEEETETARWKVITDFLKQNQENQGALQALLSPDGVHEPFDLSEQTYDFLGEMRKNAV

[2] = molecular target: T2, NPHP4, human full length, yeast two-hybrid prey (human, UniProt O75161 1-1426)
T2 construct: also called nephroretinin; nephrocystin-4
T2 sequence: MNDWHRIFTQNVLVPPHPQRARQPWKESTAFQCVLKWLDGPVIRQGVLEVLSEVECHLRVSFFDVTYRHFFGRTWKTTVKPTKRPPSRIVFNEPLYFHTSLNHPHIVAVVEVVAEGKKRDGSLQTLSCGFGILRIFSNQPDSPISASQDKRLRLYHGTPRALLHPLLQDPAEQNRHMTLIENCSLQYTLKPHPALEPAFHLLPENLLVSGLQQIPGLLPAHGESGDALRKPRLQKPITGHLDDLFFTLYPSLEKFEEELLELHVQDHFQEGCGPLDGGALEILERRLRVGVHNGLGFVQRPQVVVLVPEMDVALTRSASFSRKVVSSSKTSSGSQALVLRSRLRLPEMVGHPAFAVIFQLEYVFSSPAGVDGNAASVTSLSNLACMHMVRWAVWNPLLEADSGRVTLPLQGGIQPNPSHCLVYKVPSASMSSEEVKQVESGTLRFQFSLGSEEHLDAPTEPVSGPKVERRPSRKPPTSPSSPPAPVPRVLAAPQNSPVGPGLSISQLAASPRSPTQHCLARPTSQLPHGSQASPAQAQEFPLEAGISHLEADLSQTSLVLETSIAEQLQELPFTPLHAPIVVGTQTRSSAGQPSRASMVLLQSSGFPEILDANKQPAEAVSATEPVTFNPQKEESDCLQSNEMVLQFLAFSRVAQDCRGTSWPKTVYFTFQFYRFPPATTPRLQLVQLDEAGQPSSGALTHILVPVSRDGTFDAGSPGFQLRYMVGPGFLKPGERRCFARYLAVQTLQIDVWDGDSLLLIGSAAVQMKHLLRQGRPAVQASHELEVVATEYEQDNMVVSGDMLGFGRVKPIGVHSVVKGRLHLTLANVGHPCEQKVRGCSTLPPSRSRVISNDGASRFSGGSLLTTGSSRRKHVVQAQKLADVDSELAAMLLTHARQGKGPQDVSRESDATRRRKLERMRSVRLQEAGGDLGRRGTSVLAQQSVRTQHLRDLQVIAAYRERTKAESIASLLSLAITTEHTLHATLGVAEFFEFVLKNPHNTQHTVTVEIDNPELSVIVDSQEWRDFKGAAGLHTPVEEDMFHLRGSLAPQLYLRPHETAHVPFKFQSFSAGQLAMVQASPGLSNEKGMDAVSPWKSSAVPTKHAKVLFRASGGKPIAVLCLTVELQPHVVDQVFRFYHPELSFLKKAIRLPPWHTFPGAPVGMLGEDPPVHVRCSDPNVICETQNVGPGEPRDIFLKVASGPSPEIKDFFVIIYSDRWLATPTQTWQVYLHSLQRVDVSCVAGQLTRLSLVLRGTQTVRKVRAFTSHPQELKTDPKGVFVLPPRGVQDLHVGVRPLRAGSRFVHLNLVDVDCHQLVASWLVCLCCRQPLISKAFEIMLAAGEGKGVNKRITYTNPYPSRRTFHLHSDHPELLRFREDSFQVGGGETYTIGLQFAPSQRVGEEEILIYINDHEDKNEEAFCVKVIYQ

[3] = molecular target: T3, RPGR (non-ORF15 containing isoform), human full length, yeast two-hybrid prey (human, UniProt Q92834-2 1-815)
T3 construct: also called non-ORF15 containing RPGR isoform
T3 sequence (looked up): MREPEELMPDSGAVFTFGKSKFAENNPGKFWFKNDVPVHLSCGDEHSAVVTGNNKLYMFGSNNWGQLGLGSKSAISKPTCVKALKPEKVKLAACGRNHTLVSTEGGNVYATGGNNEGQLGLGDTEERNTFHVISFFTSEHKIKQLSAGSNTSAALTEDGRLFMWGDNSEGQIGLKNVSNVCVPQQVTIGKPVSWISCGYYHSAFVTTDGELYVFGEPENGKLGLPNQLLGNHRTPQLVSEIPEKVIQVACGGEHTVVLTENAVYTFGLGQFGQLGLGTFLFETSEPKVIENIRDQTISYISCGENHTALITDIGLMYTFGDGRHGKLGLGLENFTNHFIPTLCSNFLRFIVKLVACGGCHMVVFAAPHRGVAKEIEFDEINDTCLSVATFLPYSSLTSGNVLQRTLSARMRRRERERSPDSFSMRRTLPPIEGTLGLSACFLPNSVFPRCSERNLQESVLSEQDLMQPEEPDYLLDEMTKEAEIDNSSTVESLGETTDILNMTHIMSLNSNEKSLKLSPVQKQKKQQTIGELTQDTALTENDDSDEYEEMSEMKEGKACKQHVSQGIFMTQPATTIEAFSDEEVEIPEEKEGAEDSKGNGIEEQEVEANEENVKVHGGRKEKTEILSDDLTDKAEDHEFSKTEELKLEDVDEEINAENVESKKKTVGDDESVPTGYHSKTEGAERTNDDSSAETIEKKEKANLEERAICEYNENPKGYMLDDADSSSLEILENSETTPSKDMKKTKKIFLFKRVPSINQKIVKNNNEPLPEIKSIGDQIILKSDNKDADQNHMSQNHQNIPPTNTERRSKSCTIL

- binding result [1]: no binding
- binding result [2]: no binding
- binding result [3]: no binding
B1: full-length human nephrocystin-5 (NPHP5), yeast two-hybrid fusion (other, not shown: small tags and cut ends)
chain: MKPTGTDPRILSIAAEVAKSPEQNVPVILLKLKEIINITPLGSSELKKIKQDIYCYDLIQYCLLVLSQDYSRIQGGWTTISQLTQILSHCCVGLEPGEDAEEFYNELLPSAAENFLVLGRQLQTCFINAAKAEEKDELLHFFQIVTDSLFWLLGGHVELIQNVLQSDHFLHLLQADNVQIGSAVMMMLQNILQINSGDLLRIGRKALYSILDEVIFKLFSTPSPVIRSTATKLLLLMAESHQEILILLRQSTCYKGLRRLLSKQETGTEFSQELRQLVGLLSPMVYQEVEEQKLHQAACLIQAYWKGFQTRKRLKKLPSAVIALQRSFRSKRSKMLLEINRQKEEEDLKLQLQLQRQRAMRLSRELQLSMLEIVHPGQVEKHYREMEEKSALNIQKHWRGYRERKNFHQQRQSLIEYKAAVTLQRAALKFLAKCRKKKKLFAPWRGLQELTDARRVELKKRVDDYVRRHLGSPMSDVVSRELHAQAQERLQHYFMGRALEERAQQHREALIAQISTNVEQLMKAPSLKEAEGKEPELFLSRSRPVAAKAKQAHLTTLKHIQAPWWKKLGEESGDEIDVPKDELSIELENLFIGGTKPP
notes: Full-length NPHP5 cDNA (598 amino acid residues) fused to a GAL4 domain; also called KIAA0036
